T1: human CTLA-4 expressed on cells (293-hCTLA-4 cells; CTLA-4-expressing CHO-K1 cells) (human, UniProt P16410 36-223)
T1 construct: also called CD152; cell-expressed CTLA-4
T1 sequence: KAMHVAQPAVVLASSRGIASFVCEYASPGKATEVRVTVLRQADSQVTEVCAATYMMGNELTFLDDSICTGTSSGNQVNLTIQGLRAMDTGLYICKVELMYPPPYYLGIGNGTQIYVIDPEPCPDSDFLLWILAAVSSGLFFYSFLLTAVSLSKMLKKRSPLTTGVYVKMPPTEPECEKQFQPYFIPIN

T2: cyno CTLA-4 expressed on 293 cells (293-cynoCTLA-4 cells) (cyno, UniProt G7PL88 36-223)
T2 construct: also called cynomolgus CTLA-4
T2 sequence: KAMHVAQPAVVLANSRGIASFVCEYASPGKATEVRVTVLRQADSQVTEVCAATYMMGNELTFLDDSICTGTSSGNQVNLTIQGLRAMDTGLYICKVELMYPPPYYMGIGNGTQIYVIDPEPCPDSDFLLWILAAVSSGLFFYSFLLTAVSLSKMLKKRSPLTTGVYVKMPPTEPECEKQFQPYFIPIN

T3: Recombinant human CTLA-4-his protein (CT4-H5229, Acro Bio) (human, UniProt P16410 36-161)
T3 construct: extracellular domain; Bought protein; also called Human CTLA-4^ECD-his; not shown: his tag
T3 sequence (looked up): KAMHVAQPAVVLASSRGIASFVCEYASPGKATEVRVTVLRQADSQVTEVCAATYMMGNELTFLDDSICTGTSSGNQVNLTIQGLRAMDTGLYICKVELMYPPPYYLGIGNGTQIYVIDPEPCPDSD


Experiments:
[1] = target: T1, human CTLA-4 expressed on cells …; experiment: flow cytometry (MFI) on 293 cells expressing human CTLA-4, Alexa 488 anti-human (H+L) detection
Protocol: (§1) The culture medium was aspirated, and the cells were washed twice with HBSS (Hanks Balanced Salt Solution, Invitrogen). The cells were treated with enzyme-free cell dissociation solution (Versene solution, Invitrogen) and collected. The cells were then washed twice with HBSS, cell counts were determined, and cells were resuspended with HBSS at 2×10⁶ cells/mL. BSA was added to the cell suspension to a final concentration of 1%, and the cells were blocked for 30 minutes on ice and then washed twice with HBSS. The cells were collected after centrifugation and resuspended in FACS buffer (HBSS+1% BSA, v/v) at 2×10⁶ cells/mL. 100 μL of the cell suspension were then added to each well of a 96-well plate. 100 μL of purified anti-CTLA-4 antibodies from Example 2 or control antibodies were added to each well of the 96-well plate and incubated for 1 hour on ice, wherein the heavy chain and light chain of the Ipilimumab analogue had amino acid sequences of SEQ ID NO.: 199 and SEQ ID NO.: 200, respectively. Cells were washed twice with FACS buffer, and 100 μL of Alexa 488-labeled anti-human (H+L) antibody (Invitrogen) were added to the 96-well plate and incubated for 1 hour on ice. The samples were washed three times with FACS buffer, and 100 μL of fixation buffer (containing 4% paraformaldehyde, v/v) were added to each well and incubated for 10 minutes. The cells were then washed twice with FACS buffer and resuspended in 100 μL of FACS buffer.

[2] = target: T2, cyno CTLA-4 expressed on 293 cells …; experiment: flow cytometry (MFI) on 293 cells expressing cynomolgus CTLA-4, Alexa 488 anti-human (H+L) detection
Protocol: as §1

[3] = target: T1, human CTLA-4 expressed on cells …; experiment: cell-based blocking assay, flow cytometry: % blocking of biotinylated B7.1 ECD-Fc binding to 293-hCTLA-4 cells
Protocol: Cell-Based Receptor-Ligand Binding assay was performed to determine the ability of the anti-CTLA-4 antibodies to block the binding of CTLA-4 to its ligands B7.1. Recombinant B7.1^ECD-Fc protein (B71-H5259, Acro Bio) was biotinylated using EZ-LINK NHS-PEG12-Biotin (Thermo Scientific#21312) according to the manufacturer's instruction. Biotinylated B7.1^ECD-Fc protein was concentrated and free label removed by using Amicon centrifugal filter (10 kDa cut off). The extracellular domain of B7.1 corresponded to amino acids Val35-Asn242 of Uniprot database protein P33681.
The culture medium was aspirated, and the cells were washed twice with PBS. The cells were treated with enzyme-free cell dissociation solution (Versene solution, Invitrogen) and collected. Dissociation solution was neutralized by the addition of 8 mL of culture medium, and cell counts were determined. Cells were centrifuged at 300 g for 5 minutes and resuspended in blocking buffer (containing 2% BSA, pH 7.4 PBS buffer, w/v) at 1×10⁶ cells/mL. The cells were blocked for 15 minutes at 37° C. Meanwhile, the wells of 96-well round-bottom plates were blocked with 200 μL of blocking buffer for 1 hour at 37° C. The blocking buffer was discarded, and 200 μL of cells were dispensed to each well of the 96-well plates (2×10⁵ cells/well). The plates were centrifuged at 500 g for 5 minutes, and the supernatants were discarded. The cells were resuspended in 100 μL of anti-CTLA-4 antibodies prepared in blocking buffer with varying concentrations. 100 μL of biotinylated B7.1 ECD-Fc (60 μg/mL in blocking buffer) were added to each well of 96-well plate and mixed by shaking gently. The plates were incubated at 4° C. for 90 minutes and washed twice with 200 μL blocking buffer. The blocking buffer was discarded, and the cells were resuspended in 100 μL of streptavidin-Alexa 488 solution (Invitrogen, 1:500 in blocking buffer) and incubated at 4° C. for 1 hour. The plates were washed three times with blocking buffer and added with 200 μL of blocking buffer.
The mean fluorescence intensity (MFI) was determined using FACS Calibur (BD).

[4] = target: T1, human CTLA-4 expressed on cells …; experiment: flow cytometry (MFI) on 293F-hCTLA-4 cells, Alexa 488 anti-human (H+L) detection
Protocol: Cell-based binding assay was performed to determine the binding ability of the anti-CTLA-4 antibody variants with PTM removal to human CTLA-4. The assay procedure was similar to that described in Example 3. […] Cells were centrifuged and blocked in blocking buffer (containing 2% BSA, pH 7.4 PBS buffer, w/v) at 1×10⁶ cells/mL for 15 minutes at 37° C. 200 μL of cells were dispensed to each well of the 96-well plates (2×10⁵ cells/well). The plates were centrifuged and the supernatants were discarded. The cells were resuspended in 100 μL of anti-CTLA-4 antibodies prepared in blocking buffer. The plates were incubated at 4° C. for 90 minutes and washed twice. After the blocking buffer was discarded, the cells were resuspended in 100 μL of Alexa 488-labeled anti-human (H+L) antibody (1:500, Invitrogen) and incubated at 4° C. for 1 hour. The cells were washed and resuspended in 200 μL of blocking buffer. The mean fluorescence intensity (MFI) was determined using FACS Calibur (BD).

[5] = target: T1, human CTLA-4 expressed on cells …; experiment: cell-based blocking assay, flow cytometry: % blocking of biotin labeled B7.1 binding to 293-hCTLA-4 cells
[6] = target: T3, Recombinant human CTLA-4-his protein …; experiment: SPR, Biacore T200, antibody immobilised, CTLA-4-his injected, 1:1 model
Protocol: Dissociation constants were determined by Biacore T200 (GE Healthcare), following the specifications of the instrument provided by the manufacturer. Briefly, 1 μg/mL diluted anti-CTLA-4 antibodies in 10 mM NaOAc (pH 5.0, sigma) were immobilized on flow cell of a Series S CMS sensor chip. Remaining active ester groups were blocked with 1 M ethanolamine (pH 8.5). With HBS-EP+ as the running buffer, recombinant human CTLA-4-his (CT4-H5229, AcroBio) and cynoCTLA-4-his proteins (CT4-05227, AcroBio) with five serial diluted concentrations were injected over flow cells at 30 μL/min with the association time of 180 s. Buffer flow was maintained for dissociation for 600s.

EC50 (read off the curve) [1] [nM]	EC50 (read off the curve) [2] [nM]	EC50 (read off the curve) [4] [nM]	IC50 (read off the curve) [5] [nM]	Binder	also measured
~2	~1	–	–	CL3 (antibody, human IgG1, V domains shown, Human heavy-chain-only antibody (HCAb): two heavy chains, no light chain) VH: EVQLVEIGGGEIQPGGSLRLSCAASGFNVSKNYMSWVRQAPGKGLEWVSVIYSGGGTEYAASVKGRFNISRDSSKNMLYLQMNNLRAEDTAVYYCARAVPRPHGTDIWGQGTMVTVSS	–
~2	~1	–	–	CL30 (antibody, human IgG1, V domains shown, Human heavy-chain-only antibody (HCAb): two heavy chains, no light chain; also called clone 30) VH: EVQLEETGGDLIQPGGSLRLSCTASGFNVSRIYMSWVRQAPGKGLEWVSVIYSGGSIYYADSVRGRFTISRDSSTNTVYLQMNSLRAEDSAVYYCARAVPHAPSNFDKWGQGTRVTVSS	IC50 (read off the curve) [3]: ~10 nM
–	–	~1	~7	CL5-dPTM′ (antibody, human IgG1, V domains shown, HCAb variant with PTM removal) VH: EVQLVESGGGLIQPGGSLRLSCAVSGFTVSKNYMSWVRQAPGKGLEWVSVVYSGGSKTYADSVKGRFTISRDNSKNTLYLQMNSLRAEDTAVYYCARAVPHSPSSFDIWGQGTMVTVSS	–
–	–	–	–	CL5′-dPTM′ (antibody, human IgG1, V domains shown, HCAb variant with PTM removal) VH: EVQLVESGGGLIQPGGSLRLSCAVSGFTVSKNYMSWVRQAPGKGLEWVSVVYSGGSKTYADSVKGRFTISRDNSKNTLYLQMNSLRAEDTAVYYCARAVPHSPSSFDIWGQGTMVTVSS	Kd [6]: 0.0428 nM; koff [6]: 0.000229 s⁻¹; kon [6]: 5.35e+06 M⁻¹ s⁻¹
–	–	~1	~7	CL25-dPTM (antibody, human IgG1, V domains shown, HCAb variant with PTM removal) VH: EVQLVETGGGLIQPGGSLRLSCAASGFTVSSNYMSWVRQAPGKGLEWVSVIYSGGSTYYADSVKGRFTISRDNSKNTLYLQMSSLRAEDTAVYYCARAVPHSPSAFDRWGQGTLVTVSS	–
~2	~1	–	–	CL25 (antibody, human IgG1, V domains shown, Human heavy-chain-only antibody (HCAb): two heavy chains, no light chain; also called clone25) VH: EVQLVETGGGLIQPGGSLRLSCAASGFTVSSNYMSWVRQAPGKGLEWVSVIYSGGSTYYADSVKGRFTISRDNSKNTLYLQMSNLTAEDTAVYYCARAVPHSPSAFDRWGQGTLVTVSS	–
–	–	~1	~7	CL5-dPTM (antibody, human IgG1, V domains shown, HCAb variant with PTM removal) VH: EVQLAETGGGLIQPGGSLRLSCAVSGFTVSKNYMSWVRQVPGKGLEWVAVVYSGGSKTYADSVKGRFILSRDNSDNTLYLQMNNLRAEDTAVYYCARAVPHSPSSFDIWGQGTMVTVSS	–
–	–	~1	~7	CL22-dPTM (antibody, human IgG1, V domains shown, HCAb variant with PTM removal) VH: EVQLVETGGGLIQPGGSLRLSCAVSGFTVRNNYMSWARQVPGKGLEWVSVIYSGGSITYADSVKGRFIISRDNSKNTLYLQMNGLRAEDTAVYYCARAVPHAPSAFDIWGQGTMVTVSS	–
~2	~1	–	–	CL22 (antibody, human IgG1, V domains shown, Human heavy-chain-only antibody (HCAb): two heavy chains, no light chain; also called clone 22) VH: EVQLVETGGGLIQPGGSLRLSCAVSGFTVRNNYMSWARQVPGKGLEWVSVIYSGGSITYADSVKGRFIISRDNSNNTLYLQMNGLRAEDTAVYYCARAVPHAPSAFDIWGQGTMVTVSS	IC50 (read off the curve) [3]: ~10 nM
–	–	~1	~7	CL11-dPTM′ (antibody, human IgG1, V domains shown, HCAb variant with PTM removal) VH: EVQLVESGGGLIQPGGSLRLSCAASGFTVSRIYMSWVRQAPGKGLEWVSVIYSGGSIYYADSVKGRFTISRDSSKNTVYLQMNSLRAEDTAVYYCARAVPSAPSSFDIWGQGTMVTVSS	–
–	–	~1	~7	CL25-dPTM′ (antibody, human IgG1, V domains shown, HCAb variant with PTM removal) VH: EVQLVESGGGLIQPGGSLRLSCAASGFTVSSNYMSWVRQAPGKGLEWVSVIYSGGSTYYADSVKGRFTISRDNSKNTLYLQMNSLRAEDTAVYYCARAVPHSPSAFDRWGQGTLVTVSS	–
~2	~1	–	–	CL5 (antibody, human IgG1, V domains shown, Human heavy-chain-only antibody (HCAb): two heavy chains, no light chain; also called HCAb clone 5) VH: EVQLAETGGGLIQPGGSLRLSCAVSGFNVSKNYMSWVRQVPGKGLEWVAVVYSGGSKTYADSVKGRFILSRDNSDNTLYLQMNNLRAEDTAVYYCARAVPHSPSSFDIWGQGTMVTVSS	IC50 (read off the curve) [3]: ~10 nM
–	–	–	–	CL5′-eA-dPTM′ (antibody, human IgG1, V domains shown, HCAb variant with PTM removal and the eA (S239D, I332E) Fc) VH: EVQLVESGGGLIQPGGSLRLSCAVSGFTVSKNYMSWVRQAPGKGLEWVSVVYSGGSKTYADSVKGRFTISRDNSKNTLYLQMNSLRAEDTAVYYCARAVPHSPSSFDIWGQGTMVTVSS	Kd [6]: 0.014 nM; koff [6]: 7.58e-05 s⁻¹; kon [6]: 5.4e+06 M⁻¹ s⁻¹

— patent US20190202914A1 (HARBOUR BIOMED SHANGHAI, published 2019)
